# Target: wildtype human transient receptor potential ankyrin 1 channel subunit (hTRPA1_WT) (human) (UniProt O75762)
# Test: co-IP
row,normalized fold of enrichment (against HA-tagged WT),Substance
1,0.71 fold,"hTRPA1_27A splice variant, HA-tagged (natural protein)"
2,0.62 fold,"hTRPA1_27B splice variant, HA-tagged (natural protein)"

# — article PMC8208096
